Experimental data: PMC3376194

Substrate: CCCCC/C=C\C/C=C\C/C=C\C/C=C\CCCC(=O)O
Experiment: cells, lysate or membranes named
Settings: other: R53H, 0.025% Tween 20, 37 °C

B1: PGHS-1 R53H variant (Homo sapiens; R53H) (protein)
chain: ADPGAPTPVNPCCYYPCQHQGICVRFGLDHYQCDCTRTGYSGPNCTIPGLWTWLRNSLRPSPSFTHFLLTHGRWFWEFVNATFIREMLMRLVLTVRSNLIPSPPTYNSAHDYISWESFSNVSYYTRILPSVPKDCPTPMGTKGKKQLPDAQLLARRFLLRRKFIPDPQGTNLMFAFFAQHFTHQFFKTSGKMGPGFTKALGHGVDLGHIYGDNLERQYQLRLFKDGKLKYQVLDGEMYPPSVEEAPVLMHYPRGIPPQSQMAVGQEVFGLLPGLMLYATLWLREHNRVCDLLKAEHPTWGDEQLFQTTRLILIGETIKIVIEEYVQQLSGYFLQLKFDPELLFGVQFQYRNRIAMEFNHLYHWHPLMPDSFKVGSQEYSYEQFLFNTSMLVDYGVEALVDAFSRQIAGRIGGGRNMDHHILHVAVDVIRESREMRLQPFNEYRKRFGMKPYTSFQELVGEKEMAAELEELYGDIDALEFYPGLLLEKCHPNSIFGESMIEIGAPFSLKGLLGNPICSPEYWKPSTFGGEVGFNIVKTATLKKLVCLNTKTCPYVSFRVPDASQDDGPAVERPSTEL
Km: 1.9 ± 0.2 µM
